Where no end group is shown, it is not given here. The star is where a group is joined. Biotin = O=C1N[C@H]2[C@H](CS[C@H]2CCCCC(=O)*)N1
Columns and labels:
FITC-Ovalbumin = molecular target: T1, FITC-Ovalbumin (Gallus gallus, UniProt P01012); assay: Flow cytometric, particle-based binding assay with control protein FITC-Ovalbumin (specificity); conditions: FITC-Ovalbumin (25 nM); biot-VIVIT-Peptid (300 nM)
T1 construct: purchased Sigma
T1 sequence (P01012 1-386): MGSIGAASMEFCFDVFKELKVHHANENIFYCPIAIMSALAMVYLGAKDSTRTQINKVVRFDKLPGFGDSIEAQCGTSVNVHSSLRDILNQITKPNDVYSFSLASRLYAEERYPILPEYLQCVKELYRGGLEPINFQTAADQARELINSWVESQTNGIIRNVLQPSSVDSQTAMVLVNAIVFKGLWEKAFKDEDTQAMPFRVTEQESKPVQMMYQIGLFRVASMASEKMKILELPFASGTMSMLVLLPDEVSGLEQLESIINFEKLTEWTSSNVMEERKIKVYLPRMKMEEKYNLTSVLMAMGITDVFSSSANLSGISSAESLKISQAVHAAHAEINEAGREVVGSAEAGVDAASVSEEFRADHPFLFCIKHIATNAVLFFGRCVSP

[1] = molecular target: T2, Rekombinantes menschliches CaN (Homo sapiens, UniProt Q08209); assay: Flow cytometric, particle-based binding assay: FITC-CaN bound via biotinylated peptide to streptavidin beads; conditions: FITC-CaN (25 nM), versus control without peptide; for mittlere Fluoreszenzintensität (Bindung von FITC-CaN über biotinyliertes Peptid an Beads): biot-VIVIT-Peptid (300 nM), Streptavidin-Beads (50000); for mittlere Fluoreszenzintensität (Bindung von FITC-CaN über NFAT-B-Peptid an Beads): biot-NFAT-B-Peptid (4µM)
T2 construct: made in house; host or cells: E. coli
Experimental: Der Assaypuffer war wie folgt zusammengesetzt: 25mM Tris/HCl, 3mM MgCl2, 1mM EGTA, 0,5mM DTT oder TCEP, pH 7,4. Wenn nicht anders angegeben, wurde der Assaypuffer noch mit 0,05% BSA (PAA laboratories) versetzt.
Rekombinantes menschliches CaN wurde in Boratpuffer aufgenommen und mit FITC (Sigma) in einem molaren Verhältnis von 1:12 für 1h auf Eis und vor Licht geschützt inkubiert. Das ungebundenen FITC wurde dann über eine PD10 Säule (Amersham-Pharmacia) abgetrennt.
NFAT-B Peptid (4 µM) für 10 min lichtgeschützt auf Eis inkubierte, wurden 50000 beads in 10 µl Asaypuffer pipettiert. Nach weiteren 10 min Inkubation wurde das Reaktionsgemisch (110 µl) im Durchflusszytometer "FacsCalibur" (BD Biosciences) gemessen. […] Assay vorgeschaltet. Dafür wurde 1 µl Inhibitor (in DMSO) zu FITC-CaN in Assaypuffer (94 µl) pipettiert und anschließend für 30 min lichtgeschützt auf Eis belassen. Die Auswertung der Meßdaten erfolgte mit der Software CellQuest (BD Biosciences).

| Substance | Fluoreszenzintensität (Bindung des Kontrollproteins FITC-Ovalbumin) (FITC-Ovalbumin) | mittlere Fluoreszenzintensität (Bindung von FITC-CaN über biotinyliertes Peptid an Beads) [1] | mittlere Fluoreszenzintensität (Bindung von FITC-CaN über NFAT-B-Peptid an Beads) ([1]; mit Ca2+/Calmodulin) | mittlere Fluoreszenzintensität (Bindung von FITC-CaN über NFAT-B-Peptid an Beads) ([1]; ohne Ca2+/Calmodulin) | mittlere Fluoreszenzintensität (Bindung von FITC-CaN über biotinyliertes Peptid an Beads) ([1]; listed as biot-TIVIV-Peptid) |
| --- | --- | --- | --- | --- | --- |
| GGRRKRSESSKQQKPLE [AKAP79] | bindet | bindet |  |  |  |
| KGGFCDQYLAVPQHPYQWAK [biot-NFAT-B-Peptid] |  |  | höhere mittlere Fluoreszenzintensität | höhere mittlere Fluoreszenzintensität |  |
| biotinyl-EEHPGTIVIVPHPGAMG (Biotin-EEHPGTIVIVPHPGAMG) [biot-TIVIV] |  | nicht mit biot-TIVIV eine erhöhte Fluoreszenzintensität |  |  | keine erhöhte Fluoreszenzintensität |

From patent publication EP1536230A1, “Flow cytometric, particle-based binding assay” (Deutsches Rheuma-Forschungszentrum Berlin, priority 2003, dated 2005)
